Consider 13 molecules from patent US20240317858A1 (Adimab, published 2024).

The chains are these.
B1: Antibody No. A003 (ADI-26913) Fab (Fab, V domains shown)
VH: QVQLVQSGAEVKKPGASVKVSCKASGFNIKDYYMHWVRQAPGQRLEWMGWIDLENANTIYDAKFQGRVTITRDTSASTAYMELSSLRSEDTAVYYCARDQYGRYFYDVWGQGTLVTVSS
VL: DIVMTQSPDSLAVSLGERATINCKSSQSLLNARTGKNYLAWYQQKPGQPPKLLIYWASTRESGVPDRFSGSGSGTDFTLTISSLQAEDVAVYYCKQSYSRRTFGGGTKVEIK
notes: Fab by papain digestion of the IgG1
B2: Antibody No. A004 (ADI-26920) Fab (Fab, V domains shown)
VH: B1 VH with A97G, Q100A
VL: B1 VL with R100L
notes: as for B1
B3: Antibody No. V019 (ADI-76362) Fab (Fab, V domains shown)
VH: B1 VH with N55E, A56G, N57D, Q100A
VL: B1 VL with R100L
notes: as for B1
B4: Antibody No. V017 (ADI-76360) Fab (Fab, V domains shown)
VH: B1 VH with N57D, A97G, Q100A
VL: B1 VL with R100L
notes: as for B1
B5: Antibody No. A005 (ADI-26921) IgG1 (antibody, V domains shown)
VH: B1 VH with N55E, A56G, Q100A
VL: B1 VL with R100L
notes: IgG1, CHO-produced
B6: Antibody No. A004 (ADI-26920) IgG1 (antibody, V domains shown)
VH: B1 VH with A97G, Q100A
VL: B1 VL with R100L
notes: IgG1, CHO-produced
B7: Antibody No. V019 (ADI-76362) IgG1 (antibody, V domains shown)
VH: B1 VH with N55E, A56G, N57D, Q100A
VL: B1 VL with R100L
notes: IgG1, CHO-produced
B8: Antibody No. V017 (ADI-76360) IgG1 (antibody, V domains shown)
VH: B1 VH with N57D, A97G, Q100A
VL: B1 VL with R100L
notes: IgG1, CHO-produced
B9: Antibody No. V014 (ADI-76357) IgG1 (antibody, V domains shown)
VH: B1 VH with N28D
VL: B1 VL
notes: IgG1, CHO-produced
B10: Antibody No. V015 (ADI-76358) IgG1 (antibody, V domains shown)
VH: B1 VH with N57D
VL: B1 VL
notes: IgG1, CHO-produced
B11: Antibody No. A003 (ADI-26913) IgG1 (antibody, V domains shown)
VH: B1 VH
VL: B1 VL
notes: IgG1, CHO-produced
B12: Antibody No. V016 (ADI-76359) IgG1 (antibody, V domains shown)
VH: B1 VH with N28D, A97G, Q100A
VL: B1 VL with R100L
notes: IgG1, CHO-produced
B13: Antibody No. V018 (ADI-76361) IgG1 (antibody, V domains shown)
VH: B1 VH with N28D, N55E, A56G, Q100A
VL: B1 VL with R100L
notes: IgG1, CHO-produced

In general, Kd refers to a measure of binding affinity in units of concentration.

Substitutions are numbered along the chain they refer to.

For one experiment, the target named is T1, Cynomolgus CD3εδ Fc heterodimer (Cy CD3ε Fc + CD3δ Fc-HIS) (cynomolgus, UniProt Q95LI5 22-117; Q95LI8 22-100).
T1 construct: range 22-117;range 22-100; Made in HEK 293 cells with a heterologous signal peptide; also called Cy CD3εδ-Fc; cyno CD3εδ Fc; not shown: Fc; Fc followed by HIS tag
T1 sequence (Q95LI5 22-117, stated change not applied, form in doubt, chain 1 of 2): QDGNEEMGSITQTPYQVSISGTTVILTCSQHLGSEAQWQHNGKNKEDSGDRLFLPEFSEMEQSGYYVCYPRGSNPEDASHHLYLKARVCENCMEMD
T1 sequence (Q95LI8 22-100, stated change not applied, form in doubt, chain 2 of 2): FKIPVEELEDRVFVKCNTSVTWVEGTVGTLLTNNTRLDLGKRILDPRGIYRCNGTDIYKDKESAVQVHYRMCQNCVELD
In words: SPR (Biacore), Fab over immobilized CD3εδ Fc, pH 6.0. The method, then:
(§1) Anti-CD3 antibodies A001-A005, V002, V004, V007, V009, V010, V013, and V014-V019 were produced in CHO cells, and Fab fragments were generated from IgG1 antibodies by papain digestion and purification as described in Example 2. Monovalent binding affinity at pH 7.4 and pH 6.0 was measured via surface plasmon resonance (SPR). Briefly, human or cynomolgus CD3εδ Fe heterodimer produced as described in Example 2 was immobilized to a CM5 sensor chip in a Biacore® X100 (Cytiva, previously GE Healthcare Life Sciences) to a response level of ˜500 RUs. Fabs were then injected at 3-fold increasing concentrations, ranging from 0.74-180 nM. The sensor chip was doubly regenerated between cycles using 0.35 M EDTA and 0.1 M NaOH. The resulting data were double reference subtracted and fit to a 1:1 binding model using Biacore® Evaluation Software.
On to B1, for which the Kd amounted to 11 nM.

Consider B2, for which the Kd worked out at 15 nM.

As to B3, the equilibrium dissociation constant (Kd) is 29 nM.

For the molecule B4, the Kd came to 26 nM.

The target in the next experiment is T2, Human CD3εδ Fc heterodimer (Hu CD3ε Fc + CD3δ Fc-HIS) (human, UniProt P07766 22-126; P04234 22-100).
T2 construct: range 22-126;range 22-100; Made in HEK 293 cells with a heterologous signal peptide; also called Hu CD3εδ-Fc; CD3εδ Fc-HIS heterodimer; not shown: Fc; Fc followed by HIS tag
T2 sequence (P07766 22-126, stated change not applied, form in doubt, chain 1 of 2): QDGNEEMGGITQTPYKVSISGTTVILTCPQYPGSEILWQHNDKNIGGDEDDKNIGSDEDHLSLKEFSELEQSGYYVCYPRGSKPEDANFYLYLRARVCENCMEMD
T2 sequence (P04234 22-100, stated change not applied, form in doubt, chain 2 of 2): as the sequence (Q95LI8 22-100, stated change not applied, form in doubt, chain 2 of 2) above, with V5I, K15N, V20I, T32S, N33D, N34I, A64T, N74S counted along it
The description is as above. The method, then: as §1
As for B1, the Kd worked out at 11 nM.

As for B2, the Kd was determined as 16 nM.

Turning to B3, the Kd is 33 nM.

For B4, the Kd was 25 nM.

A further experiment has as its target T1, Cynomolgus CD3εδ Fc heterodimer (Cy …). In words: BLI (Octet), Fab monovalent, pH 6.0. The method, then:
(§2) ForteBio KD measurements (Biolayer interferometry; BLI). ForteBio affinity measurements were performed generally as previously described (Estep, P., et al., High throughput solution-based measurement of antibody-antigen affinity and epitope binning. MAbs, 2013. 5(2): p. 270-8.). Briefly, ForteBio affinity measurements were performed by loading IgGs or CD3εδ Fe-HIS heterodimer onto AHC sensors. Sensors were equilibrated off-line in assay buffer for 30 min and then monitored on-line for 60 seconds for baseline establishment. Sensors with loaded IgGs were exposed to 100 nM antigen (e.g., CD3) for 3 min, afterwards they were transferred to assay buffer for 10 min for off-rate measurement. Sensors loaded with CD3εδ Fe-HIS heterodimer were exposed to 100 nM anti-CD3 Fab for 3 min, afterwards they were transferred to assay buffer for 3 min or 10 min for off-rate measurement. Kinetics were analyzed using the 1:1 binding model. For measuring binding at different pHs, measurements were performed at pre-determined pHs (e.g., pH 7.4 and pH 6.0).
(§3) Anti-CD3 antibodies A001-A005, V002, V004, V007, V009, V010, V013, and V014-V019 were produced as IgG1s in CHO cells, and Fab fragments were generated from IgG1 antibodies by papain digestion and purification as described in Example 2. Human, cynomolgus, rhesus, and mouse CD3εδ Fc heterodimers were produced, and monovalent binding affinity and avidity at pH 7.4 and pH 6.0 were measured using the Octet® HTX instrument (ForteBio) as described in Example 2.
In general terms: In BLI a coated tip is dipped into the sample, and binding shifts an interference pattern.
B1: the Kd came out at 32 nM.

For the molecule B2, the Kd stood at 23 nM.

With B3, the Kd worked out at 21 nM.

Take B4: the Kd was found to be 34 nM.

Another experiment deals with T2, Human CD3εδ Fc heterodimer (Hu CD3ε Fc …). In words: BLI (Octet), Fab monovalent, pH 6.0. The method, then:
as §2, §3
As for B1, the Kd was found to be 29 nM.

For the molecule B2, the Kd was 29 nM.

Take B3: the Kd turned out to be 36 nM.

Turning to B4, the Kd turned out to be 58 nM.

Another experiment addresses T1, Cynomolgus CD3εδ Fc heterodimer (Cy …). In words: SPR (Biacore), Fab over immobilized CD3εδ Fc, pH 7.4. The method, then:
as §1
With B1, the Kd was 9.3 nM.

Take B2: the Kd was found to be 9 nM.

For B4, the Kd turned out to be 16 nM.

Another experiment addresses T2, Human CD3εδ Fc heterodimer (Hu CD3ε Fc …). The description is as above. The method, then:
as §1
With B1, the Kd was found to be 9.9 nM.

With B2, the Kd worked out at 10 nM.

In the case of B4, the Kd worked out at 19 nM.

The target of the next experiment is T1, Cynomolgus CD3εδ Fc heterodimer (Cy …). In words: BLI (Octet), Fab monovalent, pH 7.4. The method, then: as §2, §3
With B1, the Kd amounted to 28 nM.

As to B2, the Kd was determined as 50 nM.

Regarding B3, the Kd turned out to be 34 nM.

For B4, the Kd turned out to be 96 nM.

The target in a further experiment is T3, Rhesus CD3εδ Fc heterodimer (rhesus).
T3 construct: extracellular domain; also called Rh CD3εδ-Fc
In words: BLI (Octet), Fab monovalent, pH 7.4. The method, then: as §2, §3
B1 had a Kd of 33 nM.

As for B2, the Kd was 51 nM.

For the molecule B3, the Kd came to 79 nM.

The target of another experiment is T2, Human CD3εδ Fc heterodimer (Hu CD3ε Fc …). In words: BLI (Octet), Fab monovalent, pH 7.4. The method, then: as §2, §3
Take B1: the Kd turned out to be 35 nM.

Turning to B2, the Kd is 42 nM.

As to B3, the Kd came out at 64 nM.

For B4, the Kd turned out to be 420 nM.

The next experiment deals with T4, Cynomolgus CD3 on HSC-F cells (cynomolgus, UniProt Q95LI5 22-198).
T4 construct: whole, on cells; Target is the endogenous CD3 complex on cells; also called Cyno CD3 HSC-F cells; Cyno CD3+ HSC-F cells
T4 sequence (Q95LI5 22-198): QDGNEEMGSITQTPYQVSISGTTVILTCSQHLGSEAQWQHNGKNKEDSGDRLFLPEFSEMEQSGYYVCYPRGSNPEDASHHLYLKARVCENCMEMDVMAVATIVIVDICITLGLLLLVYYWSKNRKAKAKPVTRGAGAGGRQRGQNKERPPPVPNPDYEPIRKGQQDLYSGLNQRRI
In words: flow cytometry, 100 nM IgG1, pH 7.4. The method, then: (§4) Cell binding assays. CD3+ human Jurkat cells (ATCC) and CHO-S cells (Invitrogen/ThermoFisher) were thawed and washed with cold PBSF buffer, pH 7.4 (PBS+0.1% BSA, pH 7.4). About 200,000 cells were aliquoted per well of a 96-well plate (FACS Assay Plate VWR BD 353263) and pelleted by centrifugation (5 minutes at 500×g). The cells were washed with either PBSF pH 7.4 or PBSF pH 6.0 (PBS+0.1% BSA, pH 6.0), and then resuspended in 100 μl in either PBSF pH 7.4 or PBSF pH 6.0 with IgG1 antibody (100 nM) produced in yeast as described above or in CHO cells. The mixture (cells+antibody) was incubated for 20 minutes on ice, then washed twice with either PBSF pH 7.4 or PBSF pH 6.0. Cells were resuspended in 50 μl of propidium iodide (Roche; 1:500 dilution) and anti-human IgG-RPE (Southern Biotech; 1:100 dilution) prepared in either PBSF pH 7.4 or PBSF pH 6.0, then incubated for 20 minutes on ice in the dark before cells were washed twice with either PBSF pH 7.4 or PBSF pH 6.0. Binding was analyzed on FACS Canto II.
(§5) Anti-CD3 antibodies A001-A005, V002, V004, V007, V009, V010, V013, and V014-V019 were produced as IgG1s in CHO cells, and binding to human CD3+ Jurkat cells and cynomolgus CD3+ HSC-F cells at pH 7.4 was analyzed by flow cytometry as described in Example 2. NCB (Normalized Cell Binding) values were calculated based on control and sample MFI values as NCB={(Sample MFI)−(Secondary only MFI)}/(Secondary only MFI).
In general terms: A flow cytometer gives signals particle by particle.
As to B5, the “NCB (Normalized Cell Binding)” value was found to be 364.

With B6, the “NCB (Normalized Cell Binding)” value was found to be 348.

In the case of B7, the “NCB (Normalized Cell Binding)” value was found to be 373.

Consider B8, for which the “NCB (Normalized Cell Binding)” value amounted to 376.

On to B9, for which the “NCB (Normalized Cell Binding)” value turned out to be 377.

On to B10, for which the “NCB (Normalized Cell Binding)” value came to 369.

For B11, the “NCB (Normalized Cell Binding)” value was found to be 367.

Regarding B12, the “NCB (Normalized Cell Binding)” value was 374.

On to B13, for which the “NCB (Normalized Cell Binding)” value is 378.

The target of another experiment is T5, Human CD3 on CD3+ Jurkat cells (human, UniProt P07766 23-207).
T5 construct: whole, on cells; Target is the endogenous CD3 complex on cells; also called Human CD3+ Jurkat cells
T5 sequence (P07766 23-207): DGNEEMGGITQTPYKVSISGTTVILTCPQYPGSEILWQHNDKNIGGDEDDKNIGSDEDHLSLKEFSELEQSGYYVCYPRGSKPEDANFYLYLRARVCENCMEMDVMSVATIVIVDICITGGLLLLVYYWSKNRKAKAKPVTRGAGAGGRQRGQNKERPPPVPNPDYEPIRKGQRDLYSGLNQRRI
In words: flow cytometry, 100 nM IgG1, pH 7.4. The method, then:
as §4, §5
Turning to B5, the “NCB (Normalized Cell Binding)” value is 206.

On to B6, for which the “NCB (Normalized Cell Binding)” value was 240.

With B7, the “NCB (Normalized Cell Binding)” value turned out to be 328.

With B8, the “NCB (Normalized Cell Binding)” value stood at 325.

On to B9, for which the “NCB (Normalized Cell Binding)” value was determined as 349.

Consider B10, for which the “NCB (Normalized Cell Binding)” value came to 334.

For B11, the “NCB (Normalized Cell Binding)” value turned out to be 209.

With B12, the “NCB (Normalized Cell Binding)” value came out at 314.

For B13, the “NCB (Normalized Cell Binding)” value stood at 223.
